Here are results for two molecules from US20240189423A1 (University of California, published 2024).

The target in one test is T1, CXCR4 (human (endogenous on a human cancer …, UniProt P61073 1-352)).
T1 construct: whole, on cells
Description: flow cytometry on MDA-MB-231 cells known to express CXCR4 and CXCR7. Background: In flow cytometry, cells or beads pass a laser one at a time.

A further test deals with T2, CXCR7 (human (endogenous on a human cancer …, UniProt P25106 1-362)).
T2 construct: whole, on cells; also called ACKR3
T2 sequence (P25106 whole entry): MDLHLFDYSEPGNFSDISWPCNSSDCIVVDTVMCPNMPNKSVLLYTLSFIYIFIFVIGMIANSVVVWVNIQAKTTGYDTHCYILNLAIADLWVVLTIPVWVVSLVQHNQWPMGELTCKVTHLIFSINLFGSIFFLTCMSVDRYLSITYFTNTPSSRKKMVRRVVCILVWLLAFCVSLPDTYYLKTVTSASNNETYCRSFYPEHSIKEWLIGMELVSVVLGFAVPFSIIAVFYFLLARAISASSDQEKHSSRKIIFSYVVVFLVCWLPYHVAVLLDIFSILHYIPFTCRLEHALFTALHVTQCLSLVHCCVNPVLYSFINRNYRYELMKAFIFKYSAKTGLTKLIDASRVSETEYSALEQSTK
The test is described as above.

A further test has as its target T3, mouse CXCR7 (mouse, UniProt P56485 1-362).
T3 construct: whole, on cells; also called mouse CXCR7 receptors
Kind of test: flow cytometry on MC38 and CT26 mouse cells.

A further test has as its target VEGF-647 (UniProt P15692-4 27-191, biotinylated, pre-incubated with streptavidin-647). Kind of test: cell-based or functional assay.

T3 sequence (P56485 whole entry): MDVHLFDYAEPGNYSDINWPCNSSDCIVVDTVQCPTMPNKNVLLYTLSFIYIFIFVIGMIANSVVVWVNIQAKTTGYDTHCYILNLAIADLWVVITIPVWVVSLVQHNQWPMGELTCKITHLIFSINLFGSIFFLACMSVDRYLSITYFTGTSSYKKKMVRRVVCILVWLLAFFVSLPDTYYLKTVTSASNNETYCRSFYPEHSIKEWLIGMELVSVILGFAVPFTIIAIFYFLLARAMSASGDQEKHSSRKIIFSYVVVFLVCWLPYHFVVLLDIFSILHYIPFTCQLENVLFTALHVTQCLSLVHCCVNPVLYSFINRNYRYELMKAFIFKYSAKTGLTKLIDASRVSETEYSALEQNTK
Sequence of VEGF-647 (P15692 other isoform, or with tags, fused parts or gaps limits assumed): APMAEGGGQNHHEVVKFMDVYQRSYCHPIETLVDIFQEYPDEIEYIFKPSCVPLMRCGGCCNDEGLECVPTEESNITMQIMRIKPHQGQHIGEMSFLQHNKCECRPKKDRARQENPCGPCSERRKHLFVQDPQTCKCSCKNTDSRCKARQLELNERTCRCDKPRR
T1 sequence (P61073 whole entry): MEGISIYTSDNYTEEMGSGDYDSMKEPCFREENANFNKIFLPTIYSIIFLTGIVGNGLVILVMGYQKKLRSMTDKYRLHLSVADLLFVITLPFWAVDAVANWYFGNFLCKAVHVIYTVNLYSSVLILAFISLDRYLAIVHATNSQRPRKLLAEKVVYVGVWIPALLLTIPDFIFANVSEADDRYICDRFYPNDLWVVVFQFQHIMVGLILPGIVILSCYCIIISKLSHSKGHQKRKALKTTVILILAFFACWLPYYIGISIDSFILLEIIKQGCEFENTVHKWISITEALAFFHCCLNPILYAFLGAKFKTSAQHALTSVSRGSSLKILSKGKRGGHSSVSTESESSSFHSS

B1: CXCL12-Isotype (bispecific antibody, human IgG1, kappa, N297G)
chain: not shown
heavy: not shown
light: DIQMTQSPSSLSASVGDRVTITCRASQSVGSALAWYQQKPGKAPKLLIYSASSLYSGVPSRFSGSRSGTDFTLTISSLQPEDFATYYCQQSSYHHPITFGQGTKVEIKRTVAAPSVFIFPPSDSQLKSGTASVVCLLNNFYPREAKVQWKVDNALQSGNSQESVTEQDSKDSTYSLSSTLTLSKADYEKHKVYACEVTHQGLSSPVTKSF
notes: also called human CXCL12 isotype; isotype control of the CXCL12 bispecific
B1: the binding result in the test with CXCR4, with CXCR7 and with mouse CXCR7 was “binds” each time.

B2: CXCL12-Bevacizumab (bispecific antibody, human IgG1, N297G)
chain: not shown
heavy: not shown
light: not shown
As to B2, in the test with VEGF-647, the “fold increase in cellular fluorescence (VEGF-647 uptake), flow cytometry, HeLa cells, 24 hr” value is 32 fold.
